# According to the RNAGym collection of RNA variant scans (doi:10.7554/elife.80360):
# B1: Hammerhead Ribozyme (parent)
# chain: ACCGGAUGUGCUUUCCGGUCUGAUGAGUCCGUGAGGACGAAACAG
# Variants of: B1
# Assay: self-cleavage, relative activity (ratio to wild type); higher = more cleavage; co-transcriptional
row,Variant,self-cleavage
1,C3G C15A,0.298
2,C3G C15U,0.231
3,C3G C15G,0.314
4,C3G A37G,0.334
5,C3G A37U,0.327
6,C3G A37C,0.293
7,C3A A34C,0.359
8,C3A A34U,0.358
9,C3A A34G,0.515
10,C3A U7G,0.7
11,C3A U7A,0.687
12,C3A U7C,0.386
13,C3G C29U,0.418
14,C3G C29G,0.345
15,C3G C29A,0.324
16,C2U G35U,0.757
17,C2U G35C,0.647
18,C2U G35A,0.871
19,C3G G36C,0.328
20,C3G G36U,0.278
21,C3G G36A,0.271

row,Variant,self-cleavage
1,C2U U13A,1.52
2,C2U U13G,1.24
3,C2U U13C,1.34
4,C2U U12G,1.21
5,C2U U12A,1.26
6,C2U U12C,1.06
7,C2U U28G,0.7
8,C2U U28A,0.445
9,C2U U28C,0.79
10,C2U C30A,0.893
11,C2U C30G,0.876
12,C2U C30U,1.04
13,C3G G27C,0.284
14,C3G G27A,0.317
15,C3G G27U,0.265
16,C3G U7A,0.471
17,C3G U7G,0.625
18,C3G U7C,0.462
19,C3G A44G,0.667
20,C3G A44U,0.32
21,C3G A44C,0.374

row,Variant,self-cleavage
1,C3A U32A,0.7
2,C3A U32C,0.803
3,C3A U32G,0.355
4,C3G A6U,0.322
5,C3G A6C,0.361
6,C3G A6G,0.294
7,C3G G8U,0.656
8,C3G G8C,0.452
9,C3G G8A,0.406
10,C3G G10A,0.771
11,C3G G10U,0.638
12,C3G G10C,0.52
13,C3G C11A,0.702
14,C3G C11G,0.647
15,C3G C11U,0.314
16,C3A U14A,0.422
17,C3A U14C,0.436
18,C3A U14G,0.672
19,C2U U9G,0.659
20,C2U U9C,0.983
21,C2U U9A,1.24

row,Variant,self-cleavage
1,C3G C16U,0.327
2,C3G C16A,0.39
3,C3G C16G,0.258
4,C3G G31C,0.527
5,C3G G31A,0.636
6,C3G G31U,0.609
7,C3A G4C,0.216
8,C3A G4A,0.293
9,C3A G4U,0.282
10,C3A A42C,0.313
11,C3A A42U,0.356
12,C3A A42G,0.279
13,C3A G18A,0.344
14,C3A G18U,0.324
15,C3A G18C,0.365
16,C3G U12C,0.394
17,C3G U12G,0.356
18,C3G U12A,0.352
19,C3A C11A,0.754
20,C3A C11U,0.358
21,C3A C11G,0.562
